Measurements published in publication PMC11816700, “Multiple Chaperone DnaK–FliC Flagellin Interactions are Required for Pseudomonas aeruginosa Flagellum Assembly and Indicate a New Function for DnaK” (Microbial Biotechnology, 2025).

How the values were obtained:
[1] = biological target: SOD1bar mutant G41D (SOD1bar-G41D), FRET folding sensor; test: cell-based or functional assay
[2] = biological target: T1, FliC peptide A10 (P. aeruginosa); test: peptide or protein array; SPOT membrane of 159 synthetic 15-mer peptides (shift of 3) spanning FliC on cellulose; probed with purified recombinant DnaK (GST cleaved); bound DnaK detected with anti-DnaK antibody and alkaline phosphatase secondary antibody; intensity by ImageJ, background subtracted; details: both partners purified
T1 construct: 15-residue stretch of P. aeruginosa FliC, spot A10 of the FliC SPOT membrane, domain D0; source: synthetic peptide, SPOT membrane (cellulose)
T1 peptide: SLQRLTTGYRINSAK

[3] = biological target: T2, FliC peptide E21 (P. aeruginosa); test: as above; details: both partners purified
T2 construct: 15-residue stretch of P. aeruginosa FliC, spot E21 of the FliC SPOT membrane, domain D2; source: synthetic peptide, SPOT membrane (cellulose)
T2 peptide: TVVTGYVQLNSPTAY

[4] = biological target: T3, FliC peptide F19 (P. aeruginosa); test: as above; details: both partners purified
T3 construct: 15-residue stretch of P. aeruginosa FliC, spot F19 of the FliC SPOT membrane, domain D1; source: synthetic peptide, SPOT membrane (cellulose)
T3 peptide: QRADLGAVQNRFKNT

[5] = biological target: T4, FliC peptide A16 (P. aeruginosa); test: as above; details: both partners purified
T4 construct: 15-residue stretch of P. aeruginosa FliC, spot A16 of the FliC SPOT membrane, domain D1; source: synthetic peptide, SPOT membrane (cellulose)
T4 peptide: AGLQISNRLSNQISG

[6] = biological target: T5, FliC peptide A9 (P. aeruginosa); test: as above; details: both partners purified
T5 construct: 15-residue stretch of P. aeruginosa FliC, spot A9 of the FliC SPOT membrane, domain D0; source: synthetic peptide, SPOT membrane (cellulose)
T5 peptide: LNTSLQRLTTGYRIN

[7] = biological target: T6, FliC peptide E22 (P. aeruginosa); test: as above; details: both partners purified
T6 construct: 15-residue stretch of P. aeruginosa FliC, spot E22 of the FliC SPOT membrane, domain D2; source: synthetic peptide, SPOT membrane (cellulose)
T6 peptide: TGYVQLNSPTAYSVS

[8] = biological target: T7, FliC peptide E20 (P. aeruginosa); test: as above; details: both partners purified
T7 construct: 15-residue stretch of P. aeruginosa FliC, spot E20 of the FliC SPOT membrane, domain D2; also called E20 (FliC membrane); source: synthetic peptide, SPOT membrane (cellulose)
T7 peptide: ATTTVVTGYVQLNSP

[9] = biological target: T8, FliC peptide D5 (P. aeruginosa); test: as above; details: both partners purified
T8 construct: 15-residue stretch of P. aeruginosa FliC, spot D5 of the FliC SPOT membrane, domain D3; source: synthetic peptide, SPOT membrane (cellulose)
T8 peptide: IPNLSARARTVFTAD

[10] = biological target: T9, FliC peptide D20 (P. aeruginosa); test: as above; details: both partners purified
T9 construct: 15-residue stretch of P. aeruginosa FliC, spot D20 of the FliC SPOT membrane, domain D2; source: synthetic peptide, SPOT membrane (cellulose)
T9 peptide: LADQLNSNSSKLGIT

[11] = biological target: T10, FliC peptide F22 (P. aeruginosa); test: as above; details: both partners purified
T10 construct: 15-residue stretch of P. aeruginosa FliC, spot F22 of the FliC SPOT membrane, domain D1; source: synthetic peptide, SPOT membrane (cellulose)
T10 peptide: NRFKNTIDNLTNISE

[12] = biological target: T11, FliC peptide C20 (P. aeruginosa); test: as above; details: both partners purified
T11 construct: 15-residue stretch of P. aeruginosa FliC, spot C20 of the FliC SPOT membrane, domain D3; source: synthetic peptide, SPOT membrane (cellulose)
T11 peptide: VGGGQVKNIAIAAGD

[13] = biological target: T12, FliC peptide B18 (P. aeruginosa); test: as above; details: both partners purified
T12 construct: 15-residue stretch of P. aeruginosa FliC, spot B18 of the FliC SPOT membrane, domain D1; source: synthetic peptide, SPOT membrane (cellulose)
T12 peptide: TRISDTTTFGGRKLL

[14] = biological target: T13, DnaK peptide E18 (P. aeruginosa); test: peptide or protein array; SPOT membrane of 209 synthetic 15-mer peptides (shift of 3) spanning DnaK on cellulose; probed with purified recombinant FliC (GST cleaved); bound FliC detected with anti-FliC antibody and alkaline phosphatase secondary antibody; intensity by ImageJ, background subtracted; details: both partners purified
T13 construct: 15-residue stretch of P. aeruginosa DnaK, spot E18 of the DnaK SPOT membrane, domain NBD (ATPase); source: synthetic peptide, SPOT membrane (cellulose)
T13 peptide: IHEVILVGGQTRMPL

[15] = biological target: T14, DnaK peptide H14 (P. aeruginosa); test: as above; details: both partners purified
T14 construct: 15-residue stretch of P. aeruginosa DnaK, spot H14 of the DnaK SPOT membrane, domain SBD; source: synthetic peptide, SPOT membrane (cellulose)
T14 peptide: QGDALVHATRKMITE

[16] = biological target: T15, DnaK peptide H13 (P. aeruginosa); test: as above; details: both partners purified
T15 construct: 15-residue stretch of P. aeruginosa DnaK, spot H13 of the DnaK SPOT membrane, domain SBD; source: synthetic peptide, SPOT membrane (cellulose)
T15 peptide: ARNQGDALVHATRKM

[17] = biological target: T16, DnaK peptide E20 (P. aeruginosa); test: as above; details: both partners purified
T16 construct: 15-residue stretch of P. aeruginosa DnaK, spot E20 of the DnaK SPOT membrane, domain NBD (ATPase); also called E20 (DnaK membrane); source: synthetic peptide, SPOT membrane (cellulose)
T16 peptide: VGGQTRMPLVQKTVA

B1: purified recombinant P. aeruginosa DnaK (natural protein)
chain: not shown
notes: DnaK of P. aeruginosa UCBPP-PA14, gene amplified with primers dnaKFw/Rv and cloned BamHI/XhoI into pGEX-6P-1; also called DnaK-GST (before cleavage); source: E. coli BL21(λDE3), pGEX-6P-1-dnaK, purified (Glutathione Sepharose 4B, eluted by prescission protease)
For B1, the “decrease of the melting temperature (Tm) of SOD1bar-G41D with DnaK (20 μM), pH 7, fast relaxation imaging (FReI); not affected by ATP or AMP-PNP” value [1] was roughly 10 K, the “fold decrease of the maximal ΔD/A Initial of DnaK+SOD1bar-G41D at pH 6 when 2 mM ATP or AMP-PNP was added” value [1] was roughly 1.7 fold and the “fold increase of kobs of the ΔD/A Initial curve of DnaK+SOD1bar-G41D at pH 6 when 2 mM AMP-PNP was added” value [1] was 2 fold. For the same binder, the “fold increase of kobs of the ΔD/A Initial curve of DnaK+SOD1bar-G41D at pH 6 when 2 mM ATP was added” value [1] was 4 fold, the “melting temperature (Tm) of SOD1bar-G41D when supplemented with DnaK, FReI” value [1] was 308 K and the “reduction of the folding rate (kf) of SOD1bar-G41D at 310 K with DnaK (20 μM), pH 7, FReI” value [1] was roughly 3 fold. It also gave an Intensity [2] of 2.4 relative intensity, an Intensity [3] of 2.87 relative intensity and an Intensity [4] of 2.34 relative intensity. The Intensity [5] was 4.17 relative intensity, the Intensity [6] was 2.51 relative intensity and the Intensity [7] was 3.55 relative intensity. The Intensity [8] was 2.36 relative intensity, the Intensity [9] was 2.22 relative intensity and the Intensity [10] was 2.85 relative intensity. The Intensity [11] was 2.3 relative intensity, the Intensity [12] was 3.05 relative intensity and the Intensity [13] was 5.07 relative intensity.

B2: purified recombinant P. aeruginosa FliC (natural protein, UniProt A0A0H2Z7X1 1-488, looked up)
chain: MALTVNTNIASLNTQRNLNASSNDLNTSLQRLTTGYRINSAKDDAAGLQISNRLSNQISGLNVATRNANDGISLAQTAEGALQQSTNILQRIRDLALQSANGSNSDADRAALQKEVAAQQAELTRISDTTTFGGRKLLDGSFGTTSFQVGSNAYETIDISLQNASASAIGSYQVGSNGAGTVASVAGTATASGIASGTVNLVGGGQVKNIAIAAGDSAKAIAEKMDGAIPNLSARARTVFTADVSGVTGGSLNFDVTVGSNTVSLAGVTSTQDLADQLNSNSSKLGITASINDKGVLTITSATGENVKFGAQTGTATAGQVAVKVQGSDGKFEAAAKNVVAAGTAATTTVVTGYVQLNSPTAYSVSGTGTQASQVFGNASAAQKSSVASVDISTADGAQNAIAVVDNALAAIDAQRADLGAVQNRFKNTIDNLTNISENATNARSRIKDTDFAAETAALSKNQVLQQAGTAILAQANQLPQAVLSLLR
notes: FliC (flagellin type B) of P. aeruginosa UCBPP-PA14, gene amplified with primers fliCFw/Rv and cloned BamHI/XhoI into pGEX-6P-1; also called FliC-GST (before cleavage); source: E. coli BL21(λDE3), pGEX-6P-1-fliC, purified (Glutathione Sepharose 4B, eluted by prescission protease)
B2 gave an Intensity [14] of 2.23 relative intensity, an Intensity [15] of 3.34 relative intensity and an Intensity [16] of 2.23 relative intensity. It also gave an Intensity [17] of 2.22 relative intensity.
